From patent US5661001

Tests used:
human thrombin (human) = human thrombin (human) (UniProt P00734)

Work on [Cys^33 ]HV1--[Cys^33 ]HV1 dimer yielded an inhibition of α-thrombin digesting Chromozym TH (α-thrombin) of 82% and a titration against 2.0 nM thrombin in presence of 200 µM D-Val-Leu-Arg-p-nitroanilide: fraction of active molecules (human thrombin (human)) of 0.97.
